The values that follow come from publication PMC12753827 (Nature Communications, 2025).

The data set concerns the molecule itself. Nature of the data set: SEC. (In gel filtration, larger molecules generally elute earlier.)

B1: CeLGR-ΔC (C. elegans leucine-rich-repeat-containing GPCR truncated after helix 8 at residue 712) (receptor)
chain: QNALSLAQTKHSCMALKAEDGEGCTCKQTKRYGQPECCCMGLIVSQLPTNLTADVGYLYLHNTSISVITPNFFDKFPSIRELEIDNSAHLEHIDGSSLSVLSKLRKLSVVKCPNLREISGKLLVNNTRIQNVILKNNGLATMPSLRMTDAHHVLLDRIDLSGNKIKFISDSKVRNVKARTVVLSENKLIEISGYAFTESQFLKLKLNNNPDLRSLSVDAFKNMAGLQTLDLSHTSIDTLPINGLKKLKTLILNDVPTLKSLPSVLSFTDLETAHFTYPHHCCLFKYVDDVTMNDNGKYQRNAKEIHKRICDKREQQKVARRRKRETSGIDFLDMLLKEWTDNSTYTGPDDADDDELPPFVEIGAEPCQSIGEEVQKYYSNITCYPQPDALNPCENIVGYPFLRIAVWVVCLAAIVGNIIVWALLGIVYEKRMRMHYLYMINMSVADMVTGIYLAVLAIADAKMSDEYYRHAVWWQTGWGCRAAGFLAVFASELGIISMFLIAFEMSYNTRQSFRGRRLSPKVGVLLMIGGWLFAIIMAILPWFDVSSYSESSVCLPLRAATIFDKSYLIFGLSFNFLAFAAMALSYGFIVKMLKENETREEDRALITKMTVLVVTDLICWFPTLFFGFTATIGFPLLSLSSAKFVLVFFFPINAFANPFLYVFFTEVIQHRVRSKTLPVIRR
The term stoichiometry N denotes a count of units in the complex or per binding partner. B1: the “stoichiometry N” value turned out to be 2.
